Measurements from the supplement of paper PMC10567573.
± gives the standard deviation.

Test: protein stability index of a GFP-peptide fusion (GPS, HEK-293T) (PSI 1-6); higher = more stable
[1] = treatment: DMSO, c terminus: a fixed tail appended
[2] = treatment: MLN4924 1 uM, 8 h, c terminus: a fixed tail appended
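Also: 24-mer peptide tiles fused after GFP, lentivirally expressed, FACS-sorted into six equal bins by GFP/DsRed ratio, decoded by Illumina sequencing, PSI is the read-weighted mean bin number.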

Sequence | protein stability index [1] | protein stability index [2] | protein stability index (treatment: DMSO, c terminus: native) | protein stability index (treatment: MLN4924 1 uM, 8 h, c terminus: native)
YSSSKGSLRLCDMRAAALCDKHSK [PPP2R2C] | 2.53 ± 0.8 | 3.11 ± 0.71 | – | –
VPHWINSNTLGFGTEQAPYGMQTQ [ETS2] | 2.58 ± 0.41 | 2.88 ± 0.22 | – | –
YQKAAEEVEAKFKRYESHPVCADL [CHCHD3] | 4.26 ± 0.14 | 4.25 ± 0.28 | – | –
HSHPPEIKDQGGAGEGLVRSANGF [MAP2] | 4.7 ± 0.14 | 4.76 ± 0.2 | – | –
SPVTTSPTAATTQNPVLSKLLMAD [LCOR] | 4.536 ± 0.031 | 4.44 ± 0.081 | – | –
LEGEDAHLSSQQASGQSYSSREVF [KRT16] | 5.04 ± 0.15 | 5.02 ± 0.1 | – | –
TDRRSFHEVREFKQLIYRVRRTDD [RIT1] | 3.03 ± 0.085 | 3.12 ± 0.14 | – | –
MELPSGPGPERLFDSHRLPGDCFL [AUP1] | 3.36 ± 0.36 | 3.27 ± 0.35 | – | –
FSINSRLASSLGNLNAATDDPENK [CDC14A] | 5.08 ± 0.26 | 5.1 ± 0.39 | – | –
EGAVKMGMPSSLAHRIAAQTLLGT [PYCR3] | 3.08 ± 0.53 | 3.39 ± 0.17 | – | –
SNEQLKVTQEPRAKKGRRNQSVEP [ZMYND11] | 5.2 ± 0.32 | 5.12 ± 0.44 | – | –
CLELVSCFVLFSLTHTHTHTPNHR [ANKRD44] | 2.7 ± 0.081 | 3.55 ± 0.097 | – | –
LRTSNGQPVKTAGEITQHNVTELL [DNAAF3] | 4.14 ± 0.23 | 4.33 ± 0.17 | – | –
PDPTPPEPEEEILGSDDEEQEDPA [SRPK2] | 5.62 ± 0.33 | 5.53 ± 0.21 | – | –
LTLSGIKEDNSLLNQGFLQAKPEK [MYBL2] | 4.53 ± 0.39 | 4.61 ± 0.099 | – | –
KIEIQTLTGLFKGDKCHSLVGKPK [CASP6] | 3.01 ± 0.12 | 3.15 ± 0.42 | – | –
DALNAYVCKGLPQHEEICLGLFTL [INTS3] | 2.81 ± 0.64 | 2.67 ± 0.74 | – | –
CGYFQVVNYTQGLWEKVMPSRYAA [SLC19A2] | 2.7 ± 0.79 | 2.46 ± 0.41 | – | –
DANLDECIPATVRSSFANQGEICL [ALDH8A1] | 4.08 ± 0.35 | 4.19 ± 0.41 | – | –
PQKASAPAADPPRYTFAPSVSLNK [PDLIM7] | 4.33 ± 0.19 | 4.32 ± 0.22 | – | –
DATQEYKEKLQKCLEPLEQKLQEI [TRIM39] | 4.8 ± 0.055 | 5.02 ± 0.18 | – | –
EKDQEQVVMNLDSRLLIFPLYICC [GMCL1] | 2.74 ± 0.75 | 2.74 ± 0.67 | – | –
TGSKEKGLTKKRTKVQKKSLLLKK [NOP53] | 4.48 ± 0.24 | 4.72 ± 0.22 | – | –

Sequence | protein stability index [1] | protein stability index [2] | protein stability index (treatment: DMSO, c terminus: native) | protein stability index (treatment: MLN4924 1 uM, 8 h, c terminus: native)
VYLSPRDDGYSTKDSYSSRDYPSS [RBMX] | 3.21 ± 0.27 | 3.38 ± 0.43 | – | –
GELLGEARYYLVQGLIEDCQLALQ [KCTD13] | 2.15 ± 0.64 | 2.3 ± 0.28 | – | –
RSPLVSGDESSLLLNAASTVARPV [RHOBTB3] | 4.31 ± 0.17 | 4.25 ± 0.26 | – | –
FHLGLEDILMEEEEGVVGGLSGGA [TFE3] | 3.75 ± 0.46 | 4.3 ± 0.46 | – | –
GLKGRTLYPAVSAVWGQCQVRIRY [SPSB2] | 2.98 ± 0.77 | 2.67 ± 0.56 | – | –
QSFGVASASSIKQILLEWCRSKTL [SMTNL2] | 2.41 ± 0.27 | 2.15 ± 0.39 | – | –
SDPQLIVQLRFCGRQPCGRFLRAY [TRADD] | 2.35 ± 0.69 | 2.11 ± 0.27 | – | –
TGITLLRVKFKSQQHRQGRSHHLE [PTGFR] | 2.24 ± 0.29 | 2.44 ± 0.34 | – | –
FEAAFGTTPSTSSSSSFDPSVFDG [SNAP91] | 4.61 ± 0.12 | 4.53 ± 0.22 | – | –
RSMVFKDVLLLGNDYIVPRHCPEL [HNF4A] | 2.29 ± 0.14 | 2.23 ± 0.32 | – | –
FFEILRLFFPVIYDVKYLMKSCKN [CNOT7] | 2.37 ± 0.9 | 2.87 ± 0.048 | – | –
PKGWRQLAQEAEAWLNYPCFKNWD [OAS1] | 2.72 ± 0.23 | 2.82 ± 0.18 | – | –
YLTVVFEHDAWFIFFMAAFAFSNG [SLC29A1] | 3.18 ± 0.41 | 2.92 ± 0.59 | – | –
LVMASLYHIYVALEEEIERNKESP [HMOX1] | 2.27 ± 0.19 | 2.22 ± 0.44 | – | –
EELAKKRFKDKSSEEAVREVHRLI [TPPP] | 3.54 ± 0.24 | 3.41 ± 0.27 | – | –
VVRYLLEQRADPNAKAHCGATALH [FEM1B] | 2.23 ± 0.21 | 2.34 ± 0.18 | – | –
PNVIDNFLCDLYPLLKLACTNTYV [OR4A15] | 2.87 ± 0.2 | 3.12 ± 0.29 | – | –
ICCDKCSVWQHIDCMGIDRQHIPD [KMT2E] | 2.7 ± 0.28 | 2.87 ± 0.43 | – | –
GLLDLNNAILQLVKKYKSMKLEKE [ESRRG] | 2.65 ± 0.14 | 2.9 ± 0.82 | – | –
LAMKIKVGSDDLERIEARLATLEG [PSD2] | 2.79 ± 0.42 | 2.85 ± 0.49 | – | –
LVETAIQSLDEPGGATFLLTAKQL [TRIM63] | 2.75 ± 0.14 | 2.66 ± 0.45 | – | –
LTEIYRIVSQKQMSDRRENDMSPS [RAB11A] | 3.54 ± 0.2 | 3.81 ± 0.12 | – | –
AMALTSSMNWGINLLISLTFLTVT [SLC2A12] | 3.14 ± 0.36 | 3.32 ± 0.33 | – | –

Sequence | protein stability index [1] | protein stability index [2] | protein stability index (treatment: DMSO, c terminus: native) | protein stability index (treatment: MLN4924 1 uM, 8 h, c terminus: native)
ERGLKKIRLGIEGYPTYKEKVKKR [BTBD10] | 3.59 ± 0.3 | 3.66 ± 0.33 | – | –
YPTSDQEGDPGSKQPRKKRGRYRQ [LCOR] | 5.3 ± 0.23 | 5.45 ± 0.27 | – | –
MLQEQLDAINEEIRMIQEEKESTE [PPFIA4] | 4.75 ± 0.41 | 4.84 ± 0.11 | – | –
PANTQINDIRIFLEKVLEENAQKK [VPS39] | 3.73 ± 0.22 | 3.61 ± 0.36 | – | –
DSKIVVPPLPGKALKRQLPFRGDE [SNX12] | 4.35 ± 0.21 | 4.36 ± 0.1 | – | –
CKRMDLVCQRMLNQGFLKVERYHN [FBXO28] | 2.38 ± 0.29 | 2.1 ± 0.16 | – | –
QKQLEQTLQQFNIKLRPPGAEKPS [ARFIP2] | 3.92 ± 0.098 | 4.07 ± 0.19 | – | –
VGKGEILASLQDGAAESPYGHPAG [RAB40B] | 4.66 ± 0.24 | 4.76 ± 0.2 | – | –
ITDNFCYFRHADPTWQNSIRHNLS [FOXJ1] | 2.32 ± 0.13 | 2.43 ± 0.17 | – | –
FRAGMKKEAVQNERDRISTRRSSY [HNF4A] | 4.2 ± 0.21 | 4.17 ± 0.22 | – | –
SFTQGEGARPLSTRVPRAAIVFTD [MATN2] | 3.5 ± 0.38 | 3.55 ± 0.12 | – | –
PETAHPNLVLSEDRKSVKFVETRL [TRIM39] | 4.04 ± 0.45 | 4.15 ± 0.16 | – | –
PDAETLKVMKQPRCGVPDVAQFVL [MMP1] | 2.4 ± 0.3 | 2.31 ± 0.27 | – | –
ASGSTQRQPPPPAPQHPQPGSQAL [FBXO28] | 5.14 ± 0.27 | 5.12 ± 0.089 | – | –
KPYKCQQCDKRFRWSSDLNKHLTT [ZNF75A] | 2.18 ± 0.14 | 2.37 ± 0.17 | – | –
MSYFGEHFWGEKNHGFEVLYHSVK [FCHO1] | 2.59 ± 0.24 | 2.11 ± 0.16 | – | –
AGSSHTPSSQSSSGGGRDSSSSIL [ELOA2] | 4.82 ± 0.26 | 4.78 ± 0.14 | – | –
WEYMHSPSENSKEAEILEVLRHPR [CPOX] | 3.99 ± 0.12 | 4.07 ± 0.32 | – | –
DSPSRSPSKVEVTEKTTTVLSESS [C2CD2L] | 5.59 ± 0.24 | 5.38 ± 0.19 | – | –
QSSKRSSRSVEDDKEGHLVCRIGD [CLK3] | 5.3 ± 0.43 | 5.17 ± 0.25 | – | –
GGGEGKAMYIDTEGTFRPERLLAV [RAD51] | 2.69 ± 0.32 | 2.9 ± 0.37 | – | –
NGVNVLDEPYEKVVDRIQSSGKNV [PDZK1] | 5.03 ± 0.3 | – | – | –
RTVDGSPMMKAAMYSVEITVEKDK [PALM] | 4.09 ± 0.18 | 4.1 ± 0.23 | – | –

Sequence | protein stability index [1] | protein stability index [2] | protein stability index (treatment: DMSO, c terminus: native) | protein stability index (treatment: MLN4924 1 uM, 8 h, c terminus: native)
MCYRVRWEEAAPGRAVEHAMFLGD [MYORG] | 2.27 ± 0.18 | 2.34 ± 0.47 | – | –
ELKRRVAEELALEQAKKESEDQKR [CHCHD3] | 4.14 ± 0.32 | 4.37 ± 0.082 | – | –
RHSFRKHLYLLRGLPGSGKTTLAR [N4BP2L1] | 2.5 ± 0.17 | 2.54 ± 0.37 | – | –
RRPHELLPVGGRLPGPTRPVLGRR [HAGHL] | 4.67 ± 0.16 | 4.92 ± 0.4 | – | –
ATLFFNPQESAILQLFHQDGTFSP [CLCN6] | 2.25 ± 0.42 | 2.29 ± 0.074 | – | –
QICTVKDIKAEPQPLSPASSSYSV [ATF6] | 4.16 ± 0.26 | 3.98 ± 0.47 | – | –
TTGLQVPSAVRCLQKRGSATSSSN [FSD1] | 4.13 ± 0.12 | 3.99 ± 0.14 | – | –
HIDPDVLYPSLNVTSFDSVVPEKL [ALG2] | 3.83 ± 0.25 | 3.91 ± 0.21 | – | –
RRAGEGRRSPRPDHPGTPPHKTFR [WEE1] | 4.78 ± 0.41 | 4.83 ± 0.32 | – | –
QYPNPLPVLSGAELEKAHLALIDY [VPS39] | 3.55 ± 0.24 | 3.58 ± 0.31 | – | –
MKSYSFLREAVPGILRARRGEGIQ [SOAT2] | 2.54 ± 0.2 | 2.77 ± 0.39 | – | –
GLETGDWGGAPKEGSIWRGAQMEK [ZSWIM9] | 4.07 ± 0.3 | 4.45 ± 0.22 | – | –
KVEQNSRPVSCSGRDALLDQIRQG [WASL] | 4 ± 0.16 | 3.96 ± 0.081 | – | –
EVLRMCVAVKKKLQLYFWKDREFH [VPS39] | 2.49 ± 0.34 | 2.55 ± 0.34 | – | –
ARPSETFARFCKSQESALGNTVPA [DNAAF3] | 3.12 ± 0.26 | 2.94 ± 0.26 | – | –
ELLLFAVGFIMAGTPMALIVISYI [OR3A1] | 2.56 ± 0.033 | 3.09 ± 0.28 | – | –
DGDKNNDGRIDFDEFLKMMEGVQ [TNNC2] | – | – | 4.63 ± 0.43 | 4.54 ± 0.42
MSRSGDRTSTFDPSHSDNLLHGLN [KLHL14] | 4.13 ± 0.24 | 4.09 ± 0.26 | – | –
PGARTRAGAARVARWRRLRLQQLR [FBXO33] | 4.12 ± 0.28 | 4.51 ± 0.26 | – | –
ECQLYPRRSQQQQVPVVDFQAELR [SNURF] | 4.3 ± 0.18 | 4.31 ± 0.084 | – | –
